Reference: paper doi:10.1101/2023.03.07.531120 (bioRxiv, 2023)
Where no end group is shown, it is not given here. The star is where a group is joined. FITC = O=C1OC2(c3ccc(O)cc3Oc3cc(O)ccc32)c2ccc(NC(=S)*)cc21; Oleoyl = CCCCCCCC/C=C\CCCCCCCC(=O)*

Target: T1, AP2 μ2 subunit (in the mouse AP2 core) (mouse, UniProt P84091 1-435)
T1 sequence: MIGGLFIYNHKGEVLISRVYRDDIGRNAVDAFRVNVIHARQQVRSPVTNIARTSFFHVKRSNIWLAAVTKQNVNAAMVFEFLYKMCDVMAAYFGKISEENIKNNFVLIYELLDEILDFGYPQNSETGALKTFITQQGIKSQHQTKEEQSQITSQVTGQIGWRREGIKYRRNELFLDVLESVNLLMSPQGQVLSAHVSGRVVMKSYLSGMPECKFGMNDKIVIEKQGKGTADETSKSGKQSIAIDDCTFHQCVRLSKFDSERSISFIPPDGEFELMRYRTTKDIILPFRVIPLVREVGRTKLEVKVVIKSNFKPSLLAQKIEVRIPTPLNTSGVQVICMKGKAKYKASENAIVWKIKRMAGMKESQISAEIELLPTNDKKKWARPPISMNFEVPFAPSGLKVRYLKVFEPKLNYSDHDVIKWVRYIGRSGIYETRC
Test: cryo-EM structure

Binder: Oleoyl-SK(FITC)KVTRRPKASDYQRL [Lipidated YxxΦ-cargo peptide of Tgn38 (Oleic acid-S{Lys(FITC)}KVTRRPKASDYQRL)]
- binding result: binds
